Test results reported in PMC5384750 (PLoS ONE, 2017).
Values joined by “and” are separate entries in the source; they are usually repeats but may differ in a detail not shown here. Identical values can stand only once.

How the values were obtained:
[1] = target: IDE (S10 extract or rIDE) (Homo sapiens, UniProt P14735); assay type: in vitro ADME; settings: 30 ng vp6, 5 μg S10 extract, up to 60 min; Western blot densitometry; at least 3 independent experiments
Protocol: Fig 9 Multiplication of PTAPPA-motifs stabilizes p6. 20 ng of sp6 or 30 ng of vp6 were incubated either with 5 μg S10 extract (A/B/C) or 2 ng of rIDE (D) for up to 60 min. Degradation efficiency was quantified via densitometric analyses of Western blots. Values represent the arithmetic mean ± SD of at least 3 independent experiments for each setting.
Typically 5 μg S10 were incubated with inhibitor or buffer and 20–100 ng sp6 at 37°C for 30 min. Reactions were stopped by addition of sample buffer and incubation at 95°C for 5 min. Remaining p6 was detected by Western blotting using an anti-p6 rabbit antiserum. Alternatively, 10 ng of BODIPY FL-labeled sp6 (sp6BY) were used as substrate and detected directly in the polyacrylamide gel by fluorescence scanning. In some experiments the amount of p6 was densitometrically quantified with the software AIDA (Raytest). For the in vitro degradation of amyloid-β 10 ng of Aβ-FITC (abcam) were used analogously to sp6BY. For the in vitro degradation of viral p6, VLPs were pelleted and lysed in IDE enzyme buffer (150 mM NaCl, 50 mM Tris pH 7.4, 0.5% (v/v) Triton X-100). The p6 content was estimated by Western blotting using a dilution series of sp6 with known concentrations. Equivalents of 15 ng were used for digestion experiments and subsequently detected by Western blotting. […]

purified mammalian IDE = settings: purified mammalian IDE; cited from earlier work
[2] = target: T1, insulin-degrading enzyme (IDE) (Homo sapiens, UniProt P14735); test: Inhibition of Aβ-FITC degradation in S10 extract; assay type: biochemical; settings: titration; 10 ng Aβ-FITC, 5 μg S10, 45 min, 37°C; fluorescence
T1 construct: endogenous in cells; host or cells: HeLa cells (cytosolic S10 extract)
Protocol: […] Reactions were stopped by addition of sample buffer and incubation at 95°C for 5 min. Remaining p6 was detected by Western blotting using an anti-p6 rabbit antiserum. Alternatively, 10 ng of BODIPY FL-labeled sp6 (sp6BY) were used as substrate and detected directly in the polyacrylamide gel by fluorescence scanning. In some experiments the amount of p6 was densitometrically quantified with the software AIDA (Raytest). For the in vitro degradation of amyloid-β 10 ng of Aβ-FITC (abcam) were used analogously to sp6BY. For the in vitro degradation of viral p6, VLPs were pelleted and lysed in IDE enzyme buffer (150 mM NaCl, 50 mM Tris pH 7.4, 0.5% (v/v) Triton X-100). The p6 content was estimated by Western blotting using a dilution series of sp6 with known concentrations. Equivalents of 15 ng were used for digestion experiments and subsequently detected by Western blotting. Experiments carried out with recombinant IDE (Calbiochem) were performed in IDE enzyme buffer. Recombinant FITC-labeled insulin was purchased from Sigma.
Supplementary file pone.0174254.s003.tif: S3 Fig p6 competes with the in vitro degradation of Aβ. […] Aβ-FITC was detected by measurement of fluorescence excitation. The band marked with * represents Aβ-oligomers and has been described earlier. (B) Band intensities were quantified for four independent experiments and values represent the arithmetic mean ± SD. […]

X4-tropic HIV-1NL4-3 wt = test: HIV-1 replication capacity in activated PBMCs (RT activity, AUC); assay type: cell-based; settings: continuous treatment with 50 μg/ml insulin; PHA-IL2-stimulated PBMCs from 3 different donors; MOI ~10^−4; untreated wt = 100%
Protocol: (§1) For infection, PBMCs were isolated from buffy coats of several blood donors and stimulated with PHA and IL-2 for three days. 1×10^6 PBMCs were incubated overnight with virus preparations equivalent to 0.031 ng of p24, and cell culture supernatant was collected every second or third day post infection (dpi). […] Virus replication was assessed by quantification of the virus-associated RT activity by [^32P]-TTP incorporation, using an oligo(dT)-poly(A) template as described elsewhere. In case of replications with inhibitor treatment, cell viability was determined in parallel by WST-1 assay (Roche) according to the manufacturer’s instructions on the last day of replication. For estimation of the multiplicity of infection (MOI), infectious units of virus stocks were determined by TCID50 end point titration in activated PBMCs. The number of HIV-1 target cells was estimated to be 50% of total PBMCs as reported in [93]. The MOI was calculated as the ratio of infectious units per target cells and was ~10^−4 in case of 0.031 ng p24 of input virus.
(§2) To determine the replication capacity of HIV-1 following infection with the indicated HIV-1 variants, the respective replication profiles were depicted as diagram (y-axis: RT activity; x-axis: dpi) and the area under curve was calculated and defined as the corresponding replication capacity of the HIV-1 variants. In every experiment the replication capacity of the untreated wt was set to 100% and compared with the indicated variants. Viability of treated cells was assessed on the last day of replication by the water-soluble tetrazolium method. All conditions were not found to diminish cell viability.

R5-tropic HIV-1NL4-3 = test: as above; assay type: cell-based; settings: 50 μg/ml insulin or 10 μM 6bK, permanent treatment; PHA-IL2-stimulated PBMCs from 3 different donors
Protocol: as §1, §2

[3] = system: X4-tropic HIV-1NL4-3 3xPTAPPA mutant; test: as above; assay type: cell-based; settings: 50 μg/ml insulin or 10 μM 6bK, permanent treatment; PHA-IL2-stimulated PBMCs from 3 different donors
Protocol: as §1, §2

recombinant IDE (rIDE) = target: T2, recombinant IDE (rIDE) (Rattus norvegicus, UniProt P35559); test: Inhibition of rIDE-mediated degradation of sp6BY; assay type: biochemical; settings: 10 ng rIDE, 10 ng sp6BY, 30 min, 37°C; TPEN 1 mM, NEM 1 mM, insulin 100 μg/ml
T2 construct: purchased Calbiochem
T2 sequence (P35559 whole entry): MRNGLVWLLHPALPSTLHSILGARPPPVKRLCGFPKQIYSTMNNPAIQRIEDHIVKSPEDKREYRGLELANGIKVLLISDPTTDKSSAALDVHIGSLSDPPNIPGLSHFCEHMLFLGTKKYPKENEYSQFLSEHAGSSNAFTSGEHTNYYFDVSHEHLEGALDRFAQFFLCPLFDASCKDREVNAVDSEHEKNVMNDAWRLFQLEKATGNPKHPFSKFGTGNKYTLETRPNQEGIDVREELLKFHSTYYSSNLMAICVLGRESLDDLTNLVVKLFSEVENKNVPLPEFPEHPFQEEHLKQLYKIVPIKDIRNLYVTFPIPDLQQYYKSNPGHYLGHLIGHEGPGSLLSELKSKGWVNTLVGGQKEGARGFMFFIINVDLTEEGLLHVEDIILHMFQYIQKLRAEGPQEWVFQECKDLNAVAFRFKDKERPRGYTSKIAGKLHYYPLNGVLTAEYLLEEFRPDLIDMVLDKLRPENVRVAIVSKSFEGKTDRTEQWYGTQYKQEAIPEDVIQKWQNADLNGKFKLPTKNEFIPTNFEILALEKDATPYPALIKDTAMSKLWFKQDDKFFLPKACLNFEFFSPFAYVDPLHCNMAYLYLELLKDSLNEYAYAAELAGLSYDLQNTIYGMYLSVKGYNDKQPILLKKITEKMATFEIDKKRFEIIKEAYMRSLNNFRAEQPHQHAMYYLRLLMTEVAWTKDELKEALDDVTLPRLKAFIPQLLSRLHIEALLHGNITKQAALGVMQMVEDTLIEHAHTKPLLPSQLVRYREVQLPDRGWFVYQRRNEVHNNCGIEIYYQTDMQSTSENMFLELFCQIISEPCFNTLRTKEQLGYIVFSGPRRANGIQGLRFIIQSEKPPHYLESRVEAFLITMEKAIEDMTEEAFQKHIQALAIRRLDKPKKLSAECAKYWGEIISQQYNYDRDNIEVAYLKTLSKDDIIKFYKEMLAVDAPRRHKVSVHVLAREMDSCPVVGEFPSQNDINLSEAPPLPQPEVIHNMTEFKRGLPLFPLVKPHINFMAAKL
Protocol: Fig 6 IDE is sufficient and required for the in vitro degradation of sp6 and vp6. (A) 10 ng sp6BY were incubated with 5 μg S10 extract from HeLa cells, either untransfected or transfected with control or IDE-specific siRNA, for 0, 10, 30 or 90 min at 37°C. (B) sp6BY was detected by fluorescence emission and quantified. (C) VLP lysates from HEK293T cells were incubated with S10 from siRNA treated cells described in A. Viral proteins were detected as described in Fig 1. (D) Western blot analyses of the S10 extract used in A and C. The membrane was stained with antibodies specific for IDE, HSP70, and β-actin. […] (F) VLP lysates were incubated with 10 ng rIDE for 30 min.
Typically 5 μg S10 were incubated with inhibitor or buffer and 20–100 ng sp6 at 37°C for 30 min. Reactions were stopped by addition of sample buffer and incubation at 95°C for 5 min. Remaining p6 was detected by Western blotting using an anti-p6 rabbit antiserum. Alternatively, 10 ng of BODIPY FL-labeled sp6 (sp6BY) were used as substrate and detected directly in the polyacrylamide gel by fluorescence scanning. In some experiments the amount of p6 was densitometrically quantified with the software AIDA (Raytest). For the in vitro degradation of amyloid-β 10 ng of Aβ-FITC (abcam) were used analogously to sp6BY. For the in vitro degradation of viral p6, VLPs were pelleted and lysed in IDE enzyme buffer (150 mM NaCl, 50 mM Tris pH 7.4, 0.5% (v/v) Triton X-100). The p6 content was estimated by Western blotting using a dilution series of sp6 with known concentrations. Equivalents of 15 ng were used for digestion experiments and subsequently detected by Western blotting. Experiments carried out with recombinant IDE (Calbiochem) were performed in IDE enzyme buffer. Recombinant FITC-labeled insulin was purchased from Sigma.

[4] = system: X4-tropic field isolate HIV-1 BK132; test: HIV-1 replication capacity in activated PBMCs (RT activity, AUC); assay type: cell-based; settings: 50 μg/ml insulin or 10 μM 6bK, permanent treatment; PHA-IL2-stimulated PBMCs from 3 different donors (S6 Fig)
Protocol: as §1, with “The number of HIV-1 target cells was estimated to be 50% of total PBMCs as reported in [93].” left out
as §2, with “In every experiment the replication capacity of the untreated wt was set to 100% and compared with the indicated variants.” left out, “All conditions were not found to diminish cell viability.” left out

For CC[C@H](C)[C@H](NC(=O)[C@@H]1CCCN1C(=O)[C@H](CCC(=O)O)NC(=O)[C@H](CCC(N)=O)NC(=O)[C@H](CCCCN)NC(=O)[C@H](CCC(N)=O)NC(=O)[C@H](CO)NC(=O)[C@@H]1CCCN1C(=O)[C@@H](NC(=O)[C@@H](NC(=O)[C@@H](NC(=O)[C@H](CCC(=O)O)NC(=O)[C@H](CCC(=O)O)NC(=O)CNC(=O)[C@H](Cc1ccccc1)NC(=O)[C@H](CCCNC(=N)N)NC(=O)[C@H](Cc1ccccc1)NC(=O)[C@H](CO)NC(=O)[C@H](CCC(=O)O)NC(=O)[C@H](C)NC(=O)[C@@H]1CCCN1C(=O)[C@@H]1CCCN1C(=O)[C@H](C)NC(=O)[C@@H](NC(=O)[C@H](CC(C)C)NC(=O)[C@H](C)NC(=O)[C@@H]1CCCN1C(=O)[C@@H]1CCCN1C(=O)[C@H](C)NC(=O)[C@@H](NC(=O)[C@@H]1CCCN1C(=O)[C@H](CCC(=O)O)NC(=O)[C@@H]1CCCN1C(=O)[C@H](CCCNC(=N)N)NC(=O)[C@H](CO)NC(=O)[C@H](CCC(N)=O)NC(=O)[C@@H](N)CC(C)C)[C@@H](C)O)[C@@H](C)O)[C@@H](C)O)[C@@H](C)O)[C@@H](C)O)C(=O)N[C@@H](CC(=O)O)C(=O)N[C@@H](CCCCN)C(=O)N[C@@H](CCC(=O)O)C(=O)N[C@@H](CC(C)C)C(=O)N[C@@H](Cc1ccc(O)cc1)C(=O)N1CCC[C@H]1C(=O)N[C@@H](CC(C)C)C(=O)N[C@@H](C)C(=O)N[C@@H](CO)C(=O)N[C@@H](CC(C)C)C(=O)N[C@@H](CCCNC(=N)N)C(=O)N[C@@H](CO)C(=O)N[C@@H](CC(C)C)C(=O)N[C@@H](Cc1ccccc1)C(=O)NCC(=O)N[C@@H](CO)C(=O)N[C@@H](CC(=O)O)C(=O)N1CCC[C@H]1C(=O)N[C@@H](CO)C(=O)N[C@@H](CO)C(=O)N[C@@H](CCC(N)=O)C(=O)O [PL], the “degradation kinetics of vp6 mutants in S10” value [1] was “comparable to their 2x and 3x counterparts”.

In the case of insulin, the Km (purified mammalian IDE) is given as 0.066 µM, the kcat (purified mammalian IDE) is given as 0.025 s⁻¹ and the “effect on degradation of Aβ-FITC” value [2] is given as “resulted in a stabilization of Aβ-FITC”. The “reduction of HIV-1 replication (replication capacity, AUC of RT activity)” value (X4-tropic HIV-1NL4-3 wt) was ~ 50% and 50%, the “effect on replication capacity of R5-tropic HIV-1 (wt and 3xPTAPPA)” value (R5-tropic HIV-1NL4-3) was “insensitive to exogenous insulin” and the “effect on replication capacity of the IDE-insensitive 3xPTAPPA mutant” value [3] was “insensitive to insulin treatment”. The “stabilization of sp6 in the presence of rIDE” value (recombinant IDE (rIDE)) was “stabilized sp6” and the “effect on replication capacity of HIV-1 BK132 compared with HIV-1NL4-3” value [4] was “same impact”.
